The record followed here is PMC7305236.

The target of assay [1] is ACKR3 C-terminally tagged with SmBiT (human) (UniProt P25106).
In assay [2] the target is delta opioid receptor (DOR) C-terminally tagged with SmBiT (UniProt P41143).
Assay [3] addresses kappa opioid receptor (KOR) C-terminally tagged with SmBiT (UniProt P41145).
Assay [4] has as its target mu opioid receptor (MOR) C-terminally tagged with SmBiT (UniProt P35372).
For assay [5], the target named is mouse ACKR3 (mouse) (UniProt P56485).
The target of assay [6] is ACKR3 C-terminally tagged with SmBiT (human) (UniProt P25106). This is another data set of the same source.
Assay [7] concerns the target atypical chemokine receptor ACKR3 (formerly CXCR7) (human) (UniProt P25106).

Sequence of ACKR3 C-terminally tagged with SmBiT (human) (P25106 whole entry): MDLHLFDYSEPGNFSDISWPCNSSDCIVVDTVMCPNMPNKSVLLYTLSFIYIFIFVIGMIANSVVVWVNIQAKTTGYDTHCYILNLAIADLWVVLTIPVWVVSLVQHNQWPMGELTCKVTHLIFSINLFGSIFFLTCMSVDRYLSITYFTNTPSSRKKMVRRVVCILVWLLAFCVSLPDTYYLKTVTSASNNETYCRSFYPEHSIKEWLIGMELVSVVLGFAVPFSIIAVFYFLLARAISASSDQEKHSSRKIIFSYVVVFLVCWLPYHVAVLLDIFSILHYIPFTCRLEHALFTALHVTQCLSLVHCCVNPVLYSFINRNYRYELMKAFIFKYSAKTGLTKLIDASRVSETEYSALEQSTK
Sequence of mouse ACKR3 (mouse) (P56485 whole entry): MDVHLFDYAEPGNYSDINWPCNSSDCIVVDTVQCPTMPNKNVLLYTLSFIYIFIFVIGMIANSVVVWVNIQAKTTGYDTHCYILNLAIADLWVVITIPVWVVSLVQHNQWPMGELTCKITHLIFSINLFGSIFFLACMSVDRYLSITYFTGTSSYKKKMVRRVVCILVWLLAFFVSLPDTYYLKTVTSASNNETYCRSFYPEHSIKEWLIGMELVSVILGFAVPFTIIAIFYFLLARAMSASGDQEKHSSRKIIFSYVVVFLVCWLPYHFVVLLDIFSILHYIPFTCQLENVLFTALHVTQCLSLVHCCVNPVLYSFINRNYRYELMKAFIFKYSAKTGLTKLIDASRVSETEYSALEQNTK
Sequence of atypical chemokine receptor ACKR3 (formerly CXCR7) (human) (P25106 whole entry): as the sequence (P25106 whole entry) above
Sequence of CXCL12 (P48061 22-93): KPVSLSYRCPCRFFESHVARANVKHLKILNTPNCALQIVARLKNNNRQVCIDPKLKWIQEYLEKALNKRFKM
Sequence of mCXCL12 (P40224 22-93): as the sequence (P48061 22-93) above, with V18I, F70L counted along it

Turning to Dynorphin B (peptide), the β-arrestin-1 recruitment (NanoBiT, U87 cells): EC50 came to 727 nM in assay [1], 158 nM in assay [2], 10.9 nM in assay [3] and 2000 nM in assay [4].
In assay [1], Dynorphin A 2–13 (peptide) had a β-arrestin-1 recruitment (NanoBiT, U87 cells): EC50 of 6000 nM.
With Nociceptin 1–13 (peptide), the β-arrestin-1 recruitment (NanoBiT, U87 cells): EC50 in assay [1] amounted to 10000 nM.
Substance “[Phe1Ψ(CH2-NH)-gly2]nociceptin-(1–13)-NH2 (peptide)” displayed a β-arrestin-1 recruitment (NanoBiT, U87 cells): EC50 in assay [1] of 2970 nM.
As to Big Dynorphin (peptide), the β-arrestin-1 recruitment (NanoBiT, U87 cells): EC50 was determined as 108 nM in assay [1], 529 nM in assay [2], 19.1 nM in assay [3] and 652 nM in assay [4].
In turn, Dynorphin A 2–17 (peptide) came in with a β-arrestin-1 recruitment (NanoBiT, U87 cells): EC50 in assay [1] of 2000 nM.
Consider Dynorphin A (peptide), for which the values for the β-arrestin-1 recruitment (NanoBiT, U87 cells): EC50 in assay [1], in assay [2] and in assay [4] were 110 nM, 240 nM and 1500 nM, respectively.
As to Dynorphin A 1–13 (peptide), the β-arrestin-1 recruitment (NanoBiT, U87 cells): EC50 in assay [1] is 61.9 nM; in assay [2] it was 319 nM; in assay [3], 2.5 nM; in assay [4] it was 2000 nM.
In assay [5], “mCXCL12 (from UniProt P40224 22-93) (ligand)” registered a Supplementary Table 6: EC50 of β-arrestin-1 recruitment to mACKR3, U87 cells of 3.32 nM.
On to Leumorphin (peptide), for which the figures for the β-arrestin-1 recruitment (NanoBiT, U87 cells): EC50 in assay [1], in assay [2] and in assay [3] were 1320 nM, 3000 nM and 21.4 nM, respectively.
With β-endorphin (peptide), in assay [2], the β-arrestin-1 recruitment (NanoBiT, U87 cells): EC50 came out at 441 nM.
In turn, “CXCL12 (from UniProt P48061 22-93) (ligand)” gave a β-arrestin recruitment to ACKR3 (Fig. 4b): EC50 in assay [6] of 1.2 nM.
As for Adrenorphin (peptide), the β-arrestin-1 recruitment (NanoBiT, U87 cells): EC50 in assay [1] was 56.5 nM; in assay [2] it was 157 nM; in assay [3] it was 43.5 nM; in assay [4] it was 41.6 nM.
Endomorphin-2 (peptide) had a β-arrestin-1 recruitment (NanoBiT, U87 cells): EC50 in assay [4] of 231 nM.
Substance “adrenorphin-derived peptide yggfmrrv (Daa)” had a Supplementary Table 4: EC50 of β-arrestin-1 recruitment to ACKR3, U87 cells in assay [7] greater than 10 µM.
